Laboratory results published in PMC3897377, “Utilizing Nanobody Technology to Target Non-Immunodominant Domains of VAR2CSA” (PLoS ONE, 2014).
Positions count from the first letter of the chain named.

B1: Nb07 (VHH)
VHH: QVQLQESGGGLVQAGGSLRLSCAASGFTFDDYVIGWFRQAPGKEREGVSCISRSDGSTYYADSVKGRFTISSDNAKNTIYLQMNSLKPEDTAVYHCAAAMTHFGLGPGPNEYDYWGQGTQVTVSS
notes: from an alpaca immunized with full-length VAR2CSA; pHEN6c vector; also called Nanobody 07; VHH; source: E. coli WK6, periplasmic extract, purified (HisTrap); not shown: His6, C-terminal, kept
B2: Nb12 (VHH)
VHH: QVQLQESGGGLVQVGGSLRLSCAASGRTFSNYAMGWFRQAPGEEREFVAAISWSDNNTLYTDSVKGRFTISRDNAENTVYLQMNSLEPEDTAVYYCAAGRRPRLRVGLNEFDYWGQGTQVTVSS
notes: from an alpaca immunized with full-length VAR2CSA; pHEN6c vector; also called Nanobody 12; VHH; source: E. coli WK6, periplasmic extract, purified (HisTrap); not shown: His6, C-terminal, kept
B3: Nb03 (VHH)
VHH: QVQLQESGGGLVQAGGSLRLSCVVSGHTFSGYVMGWFRQAPGKEREFVSSISGYGGITDYADSVKGRFTMSRDNAKNTVYLRMNSLKPEDTAVYYCAVRRSGSSREYDYWGQGTQVTVSS
notes: from an alpaca immunized with full-length VAR2CSA; pHEN6c vector; also called Nanobody 03; VHH; source: E. coli WK6, periplasmic extract, purified (HisTrap); not shown: His6, C-terminal, kept
B4: Nb13 (VHH)
VHH: QVQLQESGGGLVQPGGSLRLSCAFSGRTSRNYAMAWFRQAPGKEREFVAATSWNGDITPYGVVVKGRFTISRDNAKSTVYLKMNDLKPEDTAVYYCAAEPRFAPPVVAHEYDYWGRGTQVTVSS
notes: from an alpaca immunized with full-length VAR2CSA; pHEN6c vector; also called Nanobody 13; VHH; source: E. coli WK6, periplasmic extract, purified (HisTrap); not shown: His6, C-terminal, kept
B5: Nb17 (VHH)
VHH: QVQLQESGGGLVQPGGSLRLSCAASGFTFSGSASWVRQAPGKELEWVSSISGFGGITDYADSVKGRFTISRDNSKNTLYLQNSLKPEDTAVYYCAKGRTGWTSSFLRGQGTQVTVSS
notes: from an alpaca immunized with full-length VAR2CSA; pHEN6c vector; also called Nanobody 17; VHH; source: E. coli WK6, periplasmic extract, purified (HisTrap); not shown: His6, C-terminal, kept
B6: Nb14 (VHH)
VHH: QVQLQESGGGLVQAGGSLRLSCAASGFTLDDYGIGWFRQAPGKEHEGVSSISSGDGSTYYADSVKGRFTISSDNAKNTVYLQNSLKPEDTAVYYCAAGGLHRPLTIATTRGYGIDYWGKGTQVTVSS
notes: from an alpaca immunized with full-length VAR2CSA; pHEN6c vector; also called Nanobody 14; VHH; source: E. coli WK6, periplasmic extract, purified (HisTrap); not shown: His6, C-terminal, kept
B7: Nb06 (VHH)
VHH: QVQLQESGGGLVQAGGSLRLSCAASGFTFDDYAIGWFRQAPGKEREGVSCISSSDGVTYYVDSVKGRFTISSDNAKNTVYLQMNSLKPEDTAVYHCAASPDYYCDAGFLNYGIDYWGEGTQVTVSS
notes: from an alpaca immunized with full-length VAR2CSA; pHEN6c vector; also called Nanobody 06; VHH; source: E. coli WK6, periplasmic extract, purified (HisTrap); not shown: His6, C-terminal, kept
B8: Nb16 (VHH)
VHH: QVQLQESGGGLVQPGGSLRLSCVASGFTFSSVGSWVRQAPGKGLEWVSAISSFSGLRSYADSVKGRFTISRDNAKNTLYLENSLKPEDTAVYYCAKGTVRVGPWLRGQGTQVTVSS
notes: from an alpaca immunized with full-length VAR2CSA; pHEN6c vector; also called Nanobody 16; VHH; source: E. coli WK6, periplasmic extract, purified (HisTrap); not shown: His6, C-terminal, kept
B9: Nb05 (VHH)
VHH: QVQLQESGGGLVQPRGSLRLSCTASERDFGLVVMGWHRQAPGKQRELVAQIGTGGRTNYADSVKGRFTISIDAAKNTVYLQMNNLKPEDTAVYYCNAPLSGIWGQGTQVTVSS
notes: from an alpaca immunized with full-length VAR2CSA; pHEN6c vector; also called Nanobody 05; VHH; source: E. coli WK6, periplasmic extract, purified (HisTrap); not shown: His6, C-terminal, kept
B10: Nb01 (VHH)
VHH: QVQLQESGGGLVQAGGSLRLSCAASGRTFNSYVMGWFRQAPGKEREFVAAISWSGGNAYYADSVKGRFTISRDNAENTVYLLMNSLKPEDTAVYYCAAALTRLARNEYDYLGQGTQVTVSS
notes: from an alpaca immunized with full-length VAR2CSA; pHEN6c vector; also called Nanobody 01; VHH; source: E. coli WK6, periplasmic extract, purified (HisTrap); not shown: His6, C-terminal, kept
B11: Nb15 (VHH)
VHH: QVQLQESGGGLVQPGGPLRLSCAASGFTFDNYAMGWFRQAPGKEREFVAAISWSAGTTYYADSVKGRFTISRDNAKNTVSLQMNSLKPEDTAVYYCAAAYDGITMVVEYTNEYEYDYWGQGTQVTVSS
notes: from an alpaca immunized with full-length VAR2CSA; pHEN6c vector; also called Nanobody 15; VHH; source: E. coli WK6, periplasmic extract, purified (HisTrap); not shown: His6, C-terminal, kept
B12: Nb08 (VHH)
VHH: QVQLQESGGGLVQPGGSLRLSCVTSGFTLDYYNIGWFRQAPGKEREGVSCISISDGSTYYADSVKGRFTISRDNAKNTVYLQMNSLKPEDTAVYYCAIRLDGSSCDPEEYDYWGQGTQVTVSS
notes: from an alpaca immunized with full-length VAR2CSA; pHEN6c vector; also called Nanobody 08; VHH; source: E. coli WK6, periplasmic extract, purified (HisTrap); not shown: His6, C-terminal, kept
B13: Nb11 (VHH)
VHH: QVQLQESGGGLVQAGGSLRLSCAASGRTFSSYAMGWFRQAPGREREFVALISWSGGSTTYADSVKGRFTISRDNAQNTVYLQMNSLKPEDTAVYYCTAAGSFEGEYDYWGQGTQVTVSS
notes: from an alpaca immunized with full-length VAR2CSA; pHEN6c vector; also called Nanobody 11; VHH; source: E. coli WK6, periplasmic extract, purified (HisTrap); not shown: His6, C-terminal, kept
B14: Nb02 (VHH)
VHH: B13 VHH with R43K, L50F, T59S, Q76K, T97V, A99S
notes: from an alpaca immunized with full-length VAR2CSA; pHEN6c vector; also called Nanobody 02; VHH; source: E. coli WK6, periplasmic extract, purified (HisTrap); not shown: His6, C-terminal, kept
B15: Nb10 (VHH)
VHH: QVQLQESGGGLVQAGGSLRLSCAASGRTFSSNLMGWLRQAPGKEREFVAAMSMSGGDTFYADSVKGRFTISRDNAKNMVHLQMNSLKPEDTAIYYCAAADVRLSAYEYDYWGQGTQVTVSS
notes: from an alpaca immunized with full-length VAR2CSA; pHEN6c vector; also called Nanobody 10; VHH; source: E. coli WK6, periplasmic extract, purified (HisTrap); not shown: His6, C-terminal, kept

Key:
[1] = target: T1, VAR2CSA DBL3 domain, baculovirus-produced (Plasmodium falciparum FCR3 (implied), UniProt Q6UDW7, strain); assay: ELISA; recombinant VAR2CSA protein or domain (50 nM in PBS) coated on MaxiSorp plates overnight at 4°C; Nb 50 nM in 1% skim milk in PBS, 90 min RT; detected with rabbit anti-camel and HRP anti-rabbit, OD 490 nm after 20 min; conditions: both partners purified
T1 construct: DBL3 domain; also called DBL3X; source: baculovirus expression system, as described in [11], [20]

[2] = target: T2, ID1–ID2a minimal CSA-binding region of VAR2CSA, produced in E. coli (Plasmodium falciparum FCR3, UniProt Q6UDW7, strain); assay: as above; conditions: both partners purified
T2 construct: ID1–ID2a region; also called ID1–ID2a (coli); source: E. coli

[3] = target: T3, VAR2CSA DBL6 domain, baculovirus-produced (Plasmodium falciparum FCR3, UniProt Q6UDW7, strain); assay: as above; conditions: both partners purified
T3 construct: DBL6 domain; also called DBL6ε; source: baculovirus expression system, as described in [11], [20]

[4] = target: T4, ID1–ID2a minimal CSA-binding region of VAR2CSA, produced in Schneider 2 (S2) cells (Plasmodium falciparum FCR3, UniProt Q6UDW7, strain); assay: as above; conditions: both partners purified
T4 construct: ID1–ID2a region; also called ID1–ID2a (S2); source: Schneider 2 (S2) cells

[5] = target: T5, ID1–ID2a minimal CSA-binding region of VAR2CSA, baculovirus-produced (Plasmodium falciparum FCR3, UniProt Q6UDW7, strain); assay: as above; conditions: both partners purified
T5 construct: VAR2CSA, P. falciparum FCR3; ID1–ID2a region encompassing DBL2X with the flanking parts ID1 and ID2; also called ID1–ID2a (BV); source: baculovirus expression system, as described in [11], [20]

[6] = target: T6, full-length VAR2CSA (FV2) recombinant protein, FCR3 (Plasmodium falciparum FCR3, UniProt Q6UDW7, strain); assay: as above; conditions: both partners purified
T6 construct: VAR2CSA (PfEMP1 family), Plasmodium falciparum strain FCR3, full-length recombinant protein; also called FV2-FCR3; source: recombinant, purified, expressed as described in [33]

[7] = target: T7, native VAR2CSA on the surface of NF54 infected erythrocytes (Plasmodium falciparum NF54 (VAR2CSA …, UniProt Q8I639, strain)); assay: flow cytometry on cells; late stage VAR2CSA-expressing IE (FCR3, 7201, NF54) incubated with Nb (0,1 mg/ml), 30 min at 4°C; detected with mouse anti-penta-His and FITC anti-mouse; specific recognition defined by an MFI ratio >1.2; conditions: one partner purified
T7 construct: VAR2CSA of the P. falciparum parasite line NF54, native protein on infected erythrocytes; also called VAR2CSA-expressing IE (NF54); source: endogenous, on P. falciparum NF54-infected erythrocytes

[8] = target: T8, DBL1-ID2a protein of VAR2CSA (containing minimal CSA-binding region), baculovirus-produced (Plasmodium falciparum FCR3 (assumed for …, UniProt Q6UDW7, strain)); assay: far-Western, overlay or dot blot; Western blot: recombinant VAR2CSA domain (0,4 µg/lane) run NON-REDUCED on SDS gel, blotted to nitrocellulose, probed with 50 nM Nb in TBST; rabbit anti-camel and HRP anti-rabbit; conditions: both partners purified
T8 construct: DBL1-ID2a; source: baculovirus-produced

[9] = target: T3, VAR2CSA DBL6 domain, …; assay: ELISA; recombinant VAR2CSA protein or domain (50 nM in PBS) coated on MaxiSorp plates overnight at 4°C; Nb 50 nM in 1% skim milk in PBS, 90 min RT; detected with rabbit anti-camel and HRP anti-rabbit, OD 490 nm after 20 min; conditions: both partners purified; remark: listed apart in the source

Binder | binding result [1] | binding result [2] | binding result [3] | binding result [4] | binding result [5] | binding result [6] | binding result [7] | binding result [8] | binding result [9]
B1 | no binding (tested: 50 nM) | binds | no binding (tested: 50 nM) | binds | binds | binds | binds | binds | –
B2 | no binding (tested: 50 nM) | binds | no binding (tested: 50 nM) | binds | binds | binds | binds | binds | –
B3 | no binding (tested: 50 nM) | – | – | – | – | binds | binds | – | –
B4 | no binding (tested: 50 nM) | – | – | – | – | binds | – | – | –
B5 | no binding (tested: 50 nM) | – | – | – | – | binds | binds | – | –
B6 | no binding (tested: 50 nM) | – | – | – | – | binds | binds | – | –
B7 | no binding (tested: 50 nM) | – | – | – | – | binds | – | – | binds
B8 | no binding (tested: 50 nM) | – | – | – | – | binds | binds | – | –
B9 | no binding (tested: 50 nM) | – | – | – | – | binds | binds | – | –
B10 | no binding (tested: 50 nM) | binds | no binding (tested: 50 nM) | binds | binds | binds | binds | binds | –
B11 | no binding (tested: 50 nM) | – | – | – | – | binds | binds | – | binds
B12 | no binding (tested: 50 nM) | – | – | – | – | binds | binds | – | binds
B13 | no binding (tested: 50 nM) | – | – | – | – | binds | binds | – | –
B14 | no binding (tested: 50 nM) | – | – | – | – | binds | binds | – | –
B15 | no binding (tested: 50 nM) | binds | no binding (tested: 50 nM) | binds | binds | binds | binds | binds | –
